In patent publication US12583886 (KING ABDULLAH UNIVERSITY OF SCIENCE AND TECHNOLOGY, dated 2026):

Assays:
[1] = biological target: human PCNA N107C, N-terminally Histidine-tagged, coupled to SulfoLink agarose resin (PCNA-Agarose column) (human) (UniProt P12004); experiment: salt-gradient elution from PCNA-Agarose column, empirical cumulative integration
[2] = biological target: human PCNA N107C, N-terminally Histidine-tagged, coupled to SulfoLink agarose resin (PCNA-Agarose column) (human) (UniProt P12004); experiment: salt-gradient elution from PCNA-Agarose column (N107C PCNA on SulfoLink resin), EMG fit of UV 280 nm peak
[3] = biological target: T1, human PCNA N107C, N-terminally Histidine-tagged, coupled to SulfoLink agarose resin (PCNA-Agarose column) (human, UniProt P12004 1-261, Cys 107 joined by a thioether bond to the iodoacetyl group of SulfoLink agarose resin); experiment: salt-gradient elution from PCNA-Agarose column, empirical cumulative integration
T1 construct: Homo-trimeric ring; Immobilised bait on the column; also called N107C-PCNA; Proliferating Cell Nuclear Antigen
Source text: Two different methods were used for defining and determining this salt concentration. One method relies on empirical calculations while the second method employs a specific model for the elution peak shape. For both methods, protein elution from the column was monitored by the value recorded by the UV detector at 280 nm. The UV absorption was then plotted on the y-axis versus the NaCl concentration (here denoted as 'c') on the x-axis in the gradient region of each chromatogram. Since linear gradients were used for elution, the conversion is readily feasible from the volume in ml to salt concentration in mM on the x-axis, resulting in direct rescaling of the axis.
A binding assay based on chromatography is presented, where the PCNA-Agarose column is used as an analytical tool. The protein of interest was loaded onto the PCNA-Agarose column at low salt concentration followed by extensive washing with a buffer of an equal ionic strength to remove the non-specifically bound proteins. A salt gradient was applied to the column to elute the bound protein of interest. This gradient region of elution in the chromatogram was used for the subsequent analysis. […] The resulting data points, i.e., UV units versus salt concentrations, were analyzed either by the empirical method of cumulative integration or by fitting the peak profile with an EMG model. […]

[4] = biological target: T1, human PCNA N107C, N-terminally …; experiment: salt-gradient elution from PCNA-Agarose column (N107C PCNA on SulfoLink resin), EMG fit of UV 280 nm peak

T1 sequence (P12004 other isoform, or with tags, fused parts or gaps N107C N107C limits assumed): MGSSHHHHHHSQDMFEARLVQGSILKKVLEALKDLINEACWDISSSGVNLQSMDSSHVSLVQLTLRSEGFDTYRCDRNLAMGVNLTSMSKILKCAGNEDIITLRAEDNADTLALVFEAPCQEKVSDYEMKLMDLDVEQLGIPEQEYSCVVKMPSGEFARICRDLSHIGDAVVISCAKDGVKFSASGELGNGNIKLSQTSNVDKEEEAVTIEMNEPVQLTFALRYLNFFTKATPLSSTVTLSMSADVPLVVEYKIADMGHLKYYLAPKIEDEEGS
Sequence of human PCNA N107C, N-terminally Histidine-tagged, coupled to SulfoLink agarose resin (PCNA-Agarose column) (human) (P12004 other isoform, or with tags, fused parts or gaps N107C N107C limits assumed): as above

human DNA polymerase delta (Polδ), four-subunit complex p125/p50/p68/p12 expressed in Sf9 insect cells (from UniProt P28340 1-1107; P49005 1-469; Q15054 1-466; Q9HCU8 1-107) (enzyme)
median NaCl concentration of elution (50% cumulative elution) [1]: > 400 mM
Elution Peak (mM NaCl, mode of EMG fit) [2]: 534 mM

B1: human DNA polymerase kappa (Polκ), N-terminally Histidine- and SUMO-tagged (enzyme, UniProt Q9UBT6 1-870, looked up)
chain: MDSTKEKCDSYKDDLLLRMGLNDNKAGMEGLDKEKINKIIMEATKGSRFYGNELKKEKQVNQRIENMMQQKAQITSQQLRKAQLQVDRFAMELEQSRNLSNTIVHIDMDAFYAAVEMRDNPELKDKPIAVGSMSMLSTSNYHARRFGVRAAMPGFIAKRLCPQLIIVPPNFDKYRAVSKEVKEILADYDPNFMAMSLDEAYLNITKHLEERQNWPEDKRRYFIKMGSSVENDNPGKEVNKLSEHERSISPLLFEESPSDVQPPGDPFQVNFEEQNNPQILQNSVVFGTSAQEVVKEIRFRIEQKTTLTASAGIAPNTMLAKVCSDKNKPNGQYQILPNRQAVMDFIKDLPIRKVSGIGKVTEKMLKALGIITCTELYQQRALLSLLFSETSWHYFLHISLGLGSTHLTRDGERKSMSVERTFSEINKAEEQYSLCQELCSELAQDLQKERLKGRTVTIKLKNVNFEVKTRASTVSSVVSTAEEIFAIAKELLKTEIDADFPHPLRLRLMGVRISSFPNEEDRKHQQRSIIGFLQAGNQALSATECTLEKTDKDKFVKPLEMSHKKSFFDKKRSERKWSHQDTFKCEAVNKQSFQTSQPFQVLKKKMNENLEISENSDDCQILTCPVCFRAQGCISLEALNKHVDECLDGPSISENFKMFSCSHVSATKVNKKENVPASSLCEKQDYEAHPKIKEISSVDCIALVDTIDNSSKAESIDALSNKHSKEECSSLPSKSFNIEHCHQNSSSTVSLENEDVGSFRQEYRQPYLCEVKTGQALVCPVCNVEQKTSDLTLFNVHVDVCLNKSFIQELRKDKFNPVNQPKESSRSTGSSSGVQKAVTRTKRPGLMTKYSTSKKIKPNNPKHTLDIFFK
notes: mature; The SUMO tag was removed only after the PCNA-Agarose step; also called Polk; not shown: N-terminal Histidine tag and SUMO tag from the pESUMO pro vector
median NaCl concentration of elution (50% cumulative elution) [3]: > 400 mM
Elution Peak (mM NaCl, mode of EMG fit) [4]: 547 mM

B2: human DNA polymerase eta (Polη), native after SUMO protease digestion (enzyme, UniProt Q9Y253 1-713, looked up)
chain: MATGQDRVVALVDMDCFFVQVEQRQNPHLRNKPCAVVQYKSWKGGGIIAVSYEARAFGVTRSMWADDAKKLCPDLLLAQVRESRGKANLTKYREASVEVMEIMSRFAVIERASIDEAYVDLTSAVQERLQKLQGQPISADLLPSTYIEGLPQGPTTAEETVQKEGMRKQGLFQWLDSLQIDNLTSPDLQLTVGAVIVEEMRAAIERETGFQCSAGISHNKVLAKLACGLNKPNRQTLVSHGSVPQLFSQMPIRKIRSLGGKLGASVIEILGIEYMGELTQFTESQLQSHFGEKNGSWLYAMCRGIEHDPVKPRQLPKTIGCSKNFPGKTALATREQVQWWLLQLAQELEERLTKDRNDNDRVATQLVVSIRVQGDKRLSSLRRCCALTRYDAHKMSHDAFTVIKNCNTSGIQTEWSPPLTMLFLCATKFSASAPSSSTDITSFLSSDPSSLPKVPVTSSEAKTQGSGPAVTATKKATTSLESFFQKAAERQKVKEASLSSLTAPTQAPMSNSPSKPSLPFQTSQSTGTEPFFKQKSLLLKQKQLNNSSVSSPQQNPWSNCKALPNSLPTEYPGCVPVCEGVSKLEESSKATPAEMDLAHNSQSMHASSASKSVLEVTQKATPNPSLLAAEDQVPCEKCGSLVPVWDMPEHMDYHFALELQKSFLQPHSSNPQVVSAVSHQGKRNPKSPLACTNKRPRPEGMQTLESFFKPLTH
notes: mature; also called Poln
median NaCl concentration of elution (50% cumulative elution) [3]: > 400 mM
Elution Peak (mM NaCl, mode of EMG fit) [4]: 513 mM

B3: human DNA polymerase iota (Polι), N-terminally Histidine- and SUMO-tagged (enzyme, UniProt Q9UNA4 1-740, looked up)
chain: MEKLGVEPEEEGGGDDDEEDAEAWAMELADVGAAASSQGVHDQVLPTPNASSRVIVHVDLDCFYAQVEMISNPELKDKPLGVQQKYLVVTCNYEARKLGVKKLMNVRDAKEKCPQLVLVNGEDLTRYREMSYKVTELLEEFSPVVERLGFDENFVDLTEMVEKRLQQLQSDELSAVTVSGHVYNNQSINLLDVLHIRLLVGSQIAAEMREAMYNQLGLTGCAGVASNKLLAKLVSGVFKPNQQTVLLPESCQHLIHSLNHIKEIPGIGYKTAKCLEALGINSVRDLQTFSPKILEKELGISVAQRIQKLSFGEDNSPVILSGPPQSFSEEDSFKKCSSEVEAKNKIEELLASLLNRVCQDGRKPHTVRLIIRRYSSEKHYGRESRQCPIPSHVIQKLGTGNYDVMTPMVDILMKLFRNMVNVKMPFHLTLLSVCFCNLKALNTAKKGLIDYYLMPSLSTTSRSGKHSFKMKDTHMEDFPKDKETNRDFLPSGRIESTRTRESPLDTTNFSKEKDINEFPLCSLPEGVDQEVFKQLPVDIQEEILSGKSREKFQGKGSVSCPLHASRGVLSFFSKKQMQDIPINPRDHLSSSKQVSSVSPCEPGTSGFNSSSSSYMSSQKDYSYYLDNRLKDERISQGPKEPQGFHFTNSNPAVSAFHSFPNLQSEQLFSRNHTTDSHKQTVATDSHEGLTENREPDSVDEKITFPSDIDPQVFYELPEAVQKELLAEWKRAGSDFHIGHK
notes: mature; The SUMO tag was removed only after the PCNA-Agarose step; also called Polt; Poli; not shown: N-terminal Histidine tag and SUMO tag from the pESUMO pro vector
Elution Peak (mM NaCl, mode of EMG fit) [4]: 359 mM

B4: human p15, N-terminally Histidine- and SUMO-tagged (other, UniProt Q15004 1-111, looked up)
chain: MVRTKADSVPGTYRKVVAARAPRKVLGSSTSATNSTSVSSRKAENKYAGGNPVCVRPTPKWQKGIGEFFRLSPKDSEKENQIPEEAGSSGLGKAKRKACPLQPDHTNDEKE
notes: mature; The PCNA-Agarose column was the first step, so the His- and SUMO-tags were still on the protein; not shown: N-terminal Histidine tag and SUMO tag from the pESUMO pro vector
Elution Peak (mM NaCl, mode of EMG fit) [4]: 340 mM
